# Measurements from paper PMC4240654 (2014).
# Target: Factor IXa (Homo sapiens, UniProt P00740)
# Test: FXa generation assay
# Sequence of Factor IXa (P00740 47-191): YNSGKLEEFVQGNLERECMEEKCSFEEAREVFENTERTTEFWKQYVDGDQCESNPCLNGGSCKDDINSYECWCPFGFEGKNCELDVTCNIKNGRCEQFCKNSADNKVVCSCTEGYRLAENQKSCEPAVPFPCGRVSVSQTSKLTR
row,Kd,Binder
1,4.5 nM,"BDD rFVIIIa (ReFacto) (protein, B-domain deleted, thrombin-activated) chain 1: ATRRYYLGAVELSWDYMQSDLGELPVDARFPPRVPKSFPFNTSVVYKKTLFVEFTDHLFNIAKPRPPWMGLLGPTIQAEVYDTVVITLKNMASHPVSLHAVGVSYWKASEGAEYDDQTSQREKEDDKVFPGGSHTYVWQVLKENGPMASDPLCLTYSYLSHVDLVKDLNSGLIGALLVCREGSLAKEKTQTLHKFILLFAVFDEGKSWHSETKNSLMQDRDAASARAWPKMHTVNGYVNRSLPGLIGCHRKSVYWHVIGMGTTPEVHSIFLEGHTFLVRNHRQASLEISPITFLTAQTLLMDLGQFLLFCHISSHQHDGMEAYVKVDSCPEEPQLRMKNNEEAEDYDDDLTDSEMDVVRFDDDNSPSFIQIRSVAKKHPKTWVHYIAAEEEDWDYAPLVLAPDDRSYKSQYLNNGPQRIGRKYKKVRFMAYTDETFKTREAIQHESGILGPLLYGEVGDTLLIIFKNQASRPYNIYPHGITDVRPLYSRRLPKGVKHLKDFPILPGEIFKYKWTVTVEDGPTKSDPRCLTRYYSSFVNMERDLASGLIGPLLICYKESVDQRGNQIMSDKRNVILFSVFDENRSWYLTENIQRFLPNPAGVQLEDPEFQASNIMHSINGYVFDSLQLSVCLHEVAYWYILSIGAQTDFLSVFFSGYTFKHKMVYEDTLTLFPFSGETVFMSMENPGLWILGCHNSDFRNRGMTALLKVSSCDKNTGDYYEDSYEDISAYLLSKNNAIEPR chain 2: SFQKKTRHYFIAAVERLWDYGMSSSPHVLRNRAQSGSVPQFKKVVFQEFTDGSFTQPLYRGELNEHLGLLGPYIRAEVEDNIMVTFRNQASRPYSFYSSLISYEEDQRQGAEPRKNFVKPNETKTYFWKVQHHMAPTKDEFDCKAWAYFSDVDLEKDVHSGLIGPLLVCHTNTLNPAHGRQVTVQEFALFFTIFDETKSWYFTENMERNCRAPCNIQMEDPTFKENYRFHAINGYIMDTLPGLVMAQDQRIRWYLLSMGSNENIHSIHFSGHVFTVRKKEEYKMALYNLYPGVFETVEMLPSKAGIWRVECLIGEHLHAGMSTLFLVYSNKCQTPLGMASGHIRDFQITASGQYGQWAPKLARLHYSGSINAWSTKEPFSWIKVDLLAPMIIHGIKTQGARQKFSSLYISQFIIMYSLDGKKWQTYRGNSTGTLMVFFGNVDSSGIKHNIFNPPIIARYIRLHPTHYSIRSTLRMELMGCDLNSCSMPLGMESKAISDAQITASSYFTNMFATWSPSKARLHLQGRSNAWRPQVNNPKEWLQVDFQKTMKVTGVTTQGVKSLLTSMYVKEFLISSSQDGHQWTLFFQNGKVKVFQGNQDSFTPVVNSLDPPLLTRYLRIHPQSWVHQIALRMEVLGCEAQDLY"
2,4.1 nM,"SC rFVIIIFc (thrombin-activated) (protein, single-chain Fc fusion, thrombin-activated) chain 1: ATRRYYLGAVELSWDYMQSDLGELPVDARFPPRVPKSFPFNTSVVYKKTLFVEFTDHLFNIAKPRPPWMGLLGPTIQAEVYDTVVITLKNMASHPVSLHAVGVSYWKASEGAEYDDQTSQREKEDDKVFPGGSHTYVWQVLKENGPMASDPLCLTYSYLSHVDLVKDLNSGLIGALLVCREGSLAKEKTQTLHKFILLFAVFDEGKSWHSETKNSLMQDRDAASARAWPKMHTVNGYVNRSLPGLIGCHRKSVYWHVIGMGTTPEVHSIFLEGHTFLVRNHRQASLEISPITFLTAQTLLMDLGQFLLFCHISSHQHDGMEAYVKVDSCPEEPQLRMKNNEEAEDYDDDLTDSEMDVVRFDDDNSPSFIQIRSVAKKHPKTWVHYIAAEEEDWDYAPLVLAPDDRSYKSQYLNNGPQRIGRKYKKVRFMAYTDETFKTREAIQHESGILGPLLYGEVGDTLLIIFKNQASRPYNIYPHGITDVRPLYSRRLPKGVKHLKDFPILPGEIFKYKWTVTVEDGPTKSDPRCLTRYYSSFVNMERDLASGLIGPLLICYKESVDQRGNQIMSDKRNVILFSVFDENRSWYLTENIQRFLPNPAGVQLEDPEFQASNIMHSINGYVFDSLQLSVCLHEVAYWYILSIGAQTDFLSVFFSGYTFKHKMVYEDTLTLFPFSGETVFMSMENPGLWILGCHNSDFRNRGMTALLKVSSCDKNTGDYYEDSYEDISAYLLSKNNAIEPR chain 2: SFQKKTRHYFIAAVERLWDYGMSSSPHVLRNRAQSGSVPQFKKVVFQEFTDGSFTQPLYRGELNEHLGLLGPYIRAEVEDNIMVTFRNQASRPYSFYSSLISYEEDQRQGAEPRKNFVKPNETKTYFWKVQHHMAPTKDEFDCKAWAYFSDVDLEKDVHSGLIGPLLVCHTNTLNPAHGRQVTVQEFALFFTIFDETKSWYFTENMERNCRAPCNIQMEDPTFKENYRFHAINGYIMDTLPGLVMAQDQRIRWYLLSMGSNENIHSIHFSGHVFTVRKKEEYKMALYNLYPGVFETVEMLPSKAGIWRVECLIGEHLHAGMSTLFLVYSNKCQTPLGMASGHIRDFQITASGQYGQWAPKLARLHYSGSINAWSTKEPFSWIKVDLLAPMIIHGIKTQGARQKFSSLYISQFIIMYSLDGKKWQTYRGNSTGTLMVFFGNVDSSGIKHNIFNPPIIARYIRLHPTHYSIRSTLRMELMGCDLNSCSMPLGMESKAISDAQITASSYFTNMFATWSPSKARLHLQGRSNAWRPQVNNPKEWLQVDFQKTMKVTGVTTQGVKSLLTSMYVKEFLISSSQDGHQWTLFFQNGKVKVFQGNQDSFTPVVNSLDPPLLTRYLRIHPQSWVHQIALRMEVLGCEAQDLY"
3,5.5 nM,"rFVIIIFc (thrombin-activated) (protein, Fc fusion, thrombin-activated) chain 1: ATRRYYLGAVELSWDYMQSDLGELPVDARFPPRVPKSFPFNTSVVYKKTLFVEFTDHLFNIAKPRPPWMGLLGPTIQAEVYDTVVITLKNMASHPVSLHAVGVSYWKASEGAEYDDQTSQREKEDDKVFPGGSHTYVWQVLKENGPMASDPLCLTYSYLSHVDLVKDLNSGLIGALLVCREGSLAKEKTQTLHKFILLFAVFDEGKSWHSETKNSLMQDRDAASARAWPKMHTVNGYVNRSLPGLIGCHRKSVYWHVIGMGTTPEVHSIFLEGHTFLVRNHRQASLEISPITFLTAQTLLMDLGQFLLFCHISSHQHDGMEAYVKVDSCPEEPQLRMKNNEEAEDYDDDLTDSEMDVVRFDDDNSPSFIQIRSVAKKHPKTWVHYIAAEEEDWDYAPLVLAPDDRSYKSQYLNNGPQRIGRKYKKVRFMAYTDETFKTREAIQHESGILGPLLYGEVGDTLLIIFKNQASRPYNIYPHGITDVRPLYSRRLPKGVKHLKDFPILPGEIFKYKWTVTVEDGPTKSDPRCLTRYYSSFVNMERDLASGLIGPLLICYKESVDQRGNQIMSDKRNVILFSVFDENRSWYLTENIQRFLPNPAGVQLEDPEFQASNIMHSINGYVFDSLQLSVCLHEVAYWYILSIGAQTDFLSVFFSGYTFKHKMVYEDTLTLFPFSGETVFMSMENPGLWILGCHNSDFRNRGMTALLKVSSCDKNTGDYYEDSYEDISAYLLSKNNAIEPR chain 2: SFQKKTRHYFIAAVERLWDYGMSSSPHVLRNRAQSGSVPQFKKVVFQEFTDGSFTQPLYRGELNEHLGLLGPYIRAEVEDNIMVTFRNQASRPYSFYSSLISYEEDQRQGAEPRKNFVKPNETKTYFWKVQHHMAPTKDEFDCKAWAYFSDVDLEKDVHSGLIGPLLVCHTNTLNPAHGRQVTVQEFALFFTIFDETKSWYFTENMERNCRAPCNIQMEDPTFKENYRFHAINGYIMDTLPGLVMAQDQRIRWYLLSMGSNENIHSIHFSGHVFTVRKKEEYKMALYNLYPGVFETVEMLPSKAGIWRVECLIGEHLHAGMSTLFLVYSNKCQTPLGMASGHIRDFQITASGQYGQWAPKLARLHYSGSINAWSTKEPFSWIKVDLLAPMIIHGIKTQGARQKFSSLYISQFIIMYSLDGKKWQTYRGNSTGTLMVFFGNVDSSGIKHNIFNPPIIARYIRLHPTHYSIRSTLRMELMGCDLNSCSMPLGMESKAISDAQITASSYFTNMFATWSPSKARLHLQGRSNAWRPQVNNPKEWLQVDFQKTMKVTGVTTQGVKSLLTSMYVKEFLISSSQDGHQWTLFFQNGKVKVFQGNQDSFTPVVNSLDPPLLTRYLRIHPQSWVHQIALRMEVLGCEAQDLY"
